Measurements: publication PMC6336354, “A transient helix in the disordered region of dynein light intermediate chain links the motor to structurally diverse adaptors for cargo transport” (PLoS Biology, 2019)

Assays:
Settings in all cases: both partners purified
[1] = target: T1, SPDL1(2–359)::Strep-tag II (human, UniProt Q96EA4 2-359); assay: MST; 10 nM LIC1(388–523)::6xHis labelled with Red-Tris NTA dye; 16 two-fold dilutions of adaptor::Strep-tag II; 25°C
T1 construct: human Spindly (SPDL1), N-terminal region, residues 2-359; also called Spindly; source: E. coli BL21, purified (Ni-NTA, TEV cleavage, Strep-Tactin; dialysis or SEC); not shown: 6xHis::MBP, N-terminal, cleaved; Strep-tag II (after linker GSGSGR), C-terminal, kept
T1 sequence (looked up): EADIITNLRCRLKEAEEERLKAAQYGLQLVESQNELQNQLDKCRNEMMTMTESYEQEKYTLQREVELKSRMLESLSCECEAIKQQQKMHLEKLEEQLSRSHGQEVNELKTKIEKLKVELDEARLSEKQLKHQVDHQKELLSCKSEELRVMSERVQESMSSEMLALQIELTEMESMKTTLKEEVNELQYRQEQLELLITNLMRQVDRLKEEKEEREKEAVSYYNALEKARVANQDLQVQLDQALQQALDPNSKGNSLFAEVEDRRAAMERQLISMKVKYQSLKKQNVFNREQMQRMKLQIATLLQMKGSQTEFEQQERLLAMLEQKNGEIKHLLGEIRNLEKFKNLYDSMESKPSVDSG

[2] = target: T2, BICD2(2–422)::Strep-tag II (human, UniProt Q8TD16 2-422); assay: as above
T2 construct: human bicaudal D homolog 2 (BICD2), N-terminal region, residues 2-422; also called bicaudal D homolog 2; source: E. coli BL21, purified (Ni-NTA, TEV cleavage, Strep-Tactin; dialysis or SEC); not shown: 6xHis::MBP, N-terminal, cleaved; Strep-tag II (after linker GSGSGR), C-terminal, kept
T2 sequence (Q8TD16 2-422): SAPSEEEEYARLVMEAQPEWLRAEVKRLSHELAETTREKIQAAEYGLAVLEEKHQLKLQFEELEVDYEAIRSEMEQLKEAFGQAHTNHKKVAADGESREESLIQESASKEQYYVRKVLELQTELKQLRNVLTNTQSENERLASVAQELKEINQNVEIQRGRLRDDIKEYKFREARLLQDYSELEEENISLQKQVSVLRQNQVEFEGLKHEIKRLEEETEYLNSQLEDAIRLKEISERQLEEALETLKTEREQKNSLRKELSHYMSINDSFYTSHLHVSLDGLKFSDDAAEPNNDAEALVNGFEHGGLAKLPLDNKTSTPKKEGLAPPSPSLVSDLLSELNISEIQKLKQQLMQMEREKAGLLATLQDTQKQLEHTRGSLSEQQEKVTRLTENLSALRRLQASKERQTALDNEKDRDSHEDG

[3] = target: T3, HOOK3(2–239)::Strep-tag II (human, UniProt Q86VS8 2-239); assay: as above
T3 construct: human Hook homolog 3 (HOOK3), residues 2-239; used for NMR, SPR and MST; also called Hook homolog 3; source: E. coli Rosetta, purified (Ni-NTA, TEV cleavage, Strep-Tactin; dialysis or SEC); not shown: 6xHis::MBP, N-terminal, cleaved; Strep-tag II (after linker GSGSGR), C-terminal, kept
T3 sequence (looked up): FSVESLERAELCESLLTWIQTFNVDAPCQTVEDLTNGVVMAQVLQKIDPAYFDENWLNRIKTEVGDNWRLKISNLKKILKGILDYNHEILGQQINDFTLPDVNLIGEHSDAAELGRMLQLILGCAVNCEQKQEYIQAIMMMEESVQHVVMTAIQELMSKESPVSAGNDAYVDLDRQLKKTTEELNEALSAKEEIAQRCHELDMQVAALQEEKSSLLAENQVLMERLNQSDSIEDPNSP

[4] = target: T1, SPDL1(2–359)::Strep-tag II; assay: SPR; Biacore 3000; His-tagged LIC1 immobilised on NTA chip (200–300 RU), Strep-tagged adaptor as analyte; HBS-P (10 mM HEPES, 150 mM NaCl, 0.005% surfactant P20, pH 7.4)
[5] = target: T2, BICD2(2–422)::Strep-tag II; assay: as above
[6] = target: T3, HOOK3(2–239)::Strep-tag II; assay: as above

Kd [1]: 13.1 µM | Kd [3]: 4 µM | Kd [4]: 5.7 µM | Kd [6]: 1.9 µM
B1: LIC1(388–523)::6xHis (domain or fragment, human)
chain: WPTAAGRPVDASPRVPGGSPRTPNRSVSSNVASVSPIPAGSKKIDPNMKAGATSEGVLANFFNSLLSKKTGSPGGPGVSGGSPAGGAGGGSSGLPPSTKKSGQKPVLDVHAELDRITRKPVTVSPTTPTSPTEGEAS
notes: single N-terminal tryptophan added in the construct; 15N-labelled for the NMR titration; labelled with Red-Tris NTA dye on the His tag for MST; also called LIC1-C; LIC1-C::6xHis; source: E. coli BL21, purified (GSTrap, PreScission cleavage, second GSTrap, SEC Superdex 75); not shown: GST, N-terminal, cleaved; 6xHis (after linker GSGSG), C-terminal, kept
Kd [2]: 6 µM | Kd [5]: 1.07 µM
